Assay results published in US6818221B2, “Adjuvants and processes to induce a specific type of immune response” (Baylor Research Institute, priority 2000, dated 2004).

Columns and labels:
[1] = test system: OVA-specific CD4+ T cells; test: Clonal expansion of OVA-specific CD4+ T cells in vivo (OT-2 adoptive transfer, flow cytometry); parameters: species or system mice; settings: OVA with or without LPS adjuvant; footpad or intraperitoneal; Day 4
Excerpt: OT-2 TCR transgenic mice (strain 426-6), generated by Dr. W. Heath (Walter & Eliza Hall Institute, Melbourne, Australia) and Dr. F. Carbone (Monash University, Melbourne, Australia) were obtained from Dr. J. Kapp (Emory University, Atlanta). OT-1 TCR transgenic mice were purchased from Jackson Laboratory (Bar Harbor, Me.). C57BL/6 mice, B6.PL.THY1^a (B6.PL) mice, and C3H/HeJ mice were purchased from Jackson Laboratory (Bar Harbor, Me.). C3H/HeN mice were purchased from Harlan Sprague Dawley (Indianapolis, Ind.). All mice were kept in microisolator cages in a specific-pathogen free facility. For adoptive transfers, age matched, male C57BL/6 or B6.PL.THY1^a recipients were given 2.5×10^6 of either OT-2 cells or OT-1 TCR transgenic T cells intravenously.
Reconstituted mice (3-5 per group) were injected either intraperitoneally, or in the footpad, with either 2 mg OVA in saline, 2 mg OVA+25 μg E. coli LPS, or 2 mg OVA+25 μg P. gingivalis LPS. Endotoxin activity in saline was measured by LAL QCL-1000 kit, and observed to be below the detection limit. […]
The reconstituted mice were injected with one of the following compositions: soluble endotoxin-free OVA, E. coli LPS alone, P. gingivalis LPS alone, OVA+E. coli LPS, or OVA+P. gingivalis LPS. […] The CD4+ OVA-specific T cell response in either the draining lymph nodes or in the spleen was monitored by flow cytometry (FIG. 2A).

[2] = test system: OVA-specific CD4+ T cells; test: IL-13 production by antigen-specific T cells in restimulated cultures (ELISA); type: in vivo, B6.PL.THY1a (B6.PL) mice; settings: route not distinguished (intraperitoneally or subcutaneously)
Method: B6.PL.THY1^a (B6.PL) mice reconstituted with OT-2 transgenic T cells were immunized with soluble OVA, E. coli LPS alone, P. gingivalis LPS alone, OVA+E. coli LPS, or OVA+P. gingivalis LPS, either subcutaneously in the footpad or intraperitoneally. Four days later, the draining popliteal lymph nodes (subcutaneous route), or spleens (intraperitoneal route) were removed, and single cell suspensions were restimulated with varying concentrations of OVA (0-500 μg/mL) for 72 hours, and pulsed with [^3H] for 12 hours. The cell populations were then assayed for IL-13 with ELISA. The data presented in FIG. 10 are representative of two independent experiments.
Four days after injecting with OVA or OVA+LPS, 2.5×10^5 popliteal lymph node cells (footpad injections) or splenocytes (intraperitoneal injections) were plated in triplicate in 96-well flat bottomed plates (Costar, Cambridge, Mass.) in 200 μl of RPMI complete medium (GIBCO BRL, Grand Island, N.Y., US) supplemented with 5% fetal bovine serum (FBS), together with different concentrations (0-500 μg/mL of OVA, or OVA peptide (SIINFEKL, SEQ ID NO:1) (New England Peptide Incorporated, Fitchburg, Mass.). Proliferative responses were assessed after 72 hours of culture in a humidified atmosphere of 5% CO2 in air. […]

[3] = test system: OVA-specific CD4+ T cells; test: Cytokine production by antigen-specific T-helper cells in restimulated cultures (ELISA); type: in vivo, mice; settings: CD4+ OT-2 system; culture supernatants after 72 hours OVA restimulation
Method: (§1) Four days after injecting with OVA or OVA+LPS, 2.5×10^5 popliteal lymph node cells (footpad injections) or splenocytes (intraperitoneal injections) were plated in triplicate in 96-well flat bottomed plates (Costar, Cambridge, Mass.) in 200 μl of RPMI complete medium (GIBCO BRL, Grand Island, N.Y., US) supplemented with 5% fetal bovine serum (FBS), together with different concentrations (0-500 μg/mL of OVA, or OVA peptide (SIINFEKL, SEQ ID NO:1) (New England Peptide Incorporated, Fitchburg, Mass.). Proliferative responses were assessed after 72 hours of culture in a humidified atmosphere of 5% CO2 in air. Cultures were pulsed with 1.0 μCi [^3H] thymidine for 12 hours, and incorporation of the radionucleotide was measured by β-scintillation spectroscopy (Pulendran, B., et al. 1999. “Distinct dendritic cell subsets differentially regulate the class of immune response in vivo,” Proc Natl Acad Sci USA 96:1036-1041). For cytokine assays, aliquots of culture supernatants were removed after 72 hours, pooled, and assayed for the presence of IFNγ, IL-2, IL-4, IL-5, IL-10, and IL-13 by ELISA.
(§2) IFNγ, IL-2, IL-10, IL-4, IL-5, IL-6, IL-12, IL-13 and TNFα were quantified by ELISA kits from Pharmingen (San Diego, Calif.) using manufacturer's instructions dated 2000.
Cytokine production by antigen-specific T cells was measured by assaying the culture supernatants from the single cell suspensions of the draining lymph nodes described above for IL-2, IFNγ, IL-4, IL-10 and IL-5.

[4] = test system: OVA-specific CD8+ T cells; test: Cytokines produced in CD8+ T-cell cultures (ELISA); type: in vivo, mice; settings: CD8+ OT-1 cells
Method: as §1, §2
We next examined the cytokines produced in CD8+ T-cell cultures by ELISA.

B1: OVA: Chicken OVALBUMIN (Sigma) in PBS, depleted of the endotoxin activity; model soluble protein antigen (protein, UniProt P01012 2-386, looked up)
Ovalbumin: GSIGAASMEFCFDVFKELKVHHANENIFYCPIAIMSALAMVYLGAKDSTRTQINKVVRFDKLPGFGDSIEAQCGTSVNVHSSLRDILNQITKPNDVYSFSLASRLYAEERYPILPEYLQCVKELYRGGLEPINFQTAADQARELINSWVESQTNGIIRNVLQPSSVDSQTAMVLVNAIVFKGLWEKAFKDEDTQAMPFRVTEQESKPVQMMYQIGLFRVASMASEKMKILELPFASGTMSMLVLLPDEVSGLEQLESIINFEKLTEWTSSNVMEERKIKVYLPRMKMEEKYNLTSVLMAMGITDVFSSSANLSGISSAESLKISQAVHAAHAEINEAGREVVGSAEAGVDAASVSEEFRADHPFLFCIKHIATNAVLFFGRCVSP
[1]
  clonal expansion of OVA-specific CD4+ T cells: significant clonal expansion
[2]
  IL-13 production: little, if any
[3]
  IFNγ production: little, if any
  IL-2 production: little, if any
  IL-4 production: little, if any
  IL-5 production: little, if any
  IL-10 production: little, if any
[4]
  IFNγ production: did not secrete significant levels
  IL-2 production: did not secrete significant levels
  IL-5 production: did not secrete significant levels
  IL-10 production: did not secrete significant levels
